“Also recorded” adds a separate entry of the source.
Tests used:
[1] = system: DLD1 colon cancer cells; assay: 4H2 scFv cell penetration, protein L immunostaining; assay type: cell-based; details: 6 μM, one hour
[2] = system: PEO1 human ovarian cancer cells; assay: Cell penetration, immunostaining of fixed cells after one hour treatment; assay type: cell-based; details: washed, alkaline phosphatase-conjugated anti-mouse antibody
Experimental: The ability of 4H2 to penetrate into live cells was tested. PEO1 human ovarian cancer cells were treated with control media or media containing 4H2 or 3E10 (as a positive control) for one hour, and then cells were washed, fixed, and immunostained with an alkaline phosphatase-conjugated anti-mouse antibody.

[3] = system: live A549 human lung cancer cells; assay: Live cell penetration of FITC-labeled 4H2, fluorescence microscopy; assay type: cell-based; details: FITC-labeled 4H2 4 mg/mL, one hour
Experimental: (§1) To confirm that 4H2 penetrates live cells and exclude the observation as a fixation artifact, FITC-labeled 4H2 was applied to live Cal12T and A549 human lung cancer cells at 4 mg/mL for one hour. Cells were also treated with Hoechst and MitoTracker stains to allow detection of nuclei and mitochondria, respectively. Cells were then washed and visualized under a fluorescence microscope.

[4] = system: live Cal12T human lung cancer cells; assay: as above; assay type: cell-based; details: FITC-labeled 4H2 4 mg/mL, one hour
Experimental: as §1

[5] = system: Cal12T cells; assay: Cell-penetration and co-localization immunofluorescence assay; assay type: cell-based, human
Experimental: Cal12T cells were grown on glass coverslips and treated with control media or media containing 0.5 mg/mL 4H2 for one hour. […] For co-localization studies, the fixed cells were also probed overnight with separate rabbit primary antibodies to detect endosomes (C45B10 anti-EEA1 antibody, Cell Signaling), lysosomes (D2D11 anti-LAMP1 antibody, Cell Signaling), endoplasmic reticulum (C81H6 anti-PDI antibody, Cell Signaling), golgi apparatus (D2B6N anti-RCAS1 antibody, Cell Signaling), mitochondria (3E11 anti-COX IV and D3932 anti-AIF antibodies, Cell Signaling), or K-Ras (anti-K-Ras antibody) extensively washed with PBS, and then incubated with an Alexa555-conjugated goat anti-rabbit IgG antibody (Cell Signaling). Cells were also treated with DAPI, and imaged using an EVOS fl digital fluorescence microscope (Advanced Microscopy Group, Bothell, WA) under light, DAPI, GFP, or RFP filters. Fluorescence images were merged using ImageJ (NIH, Bethesda, MD).
After confirming that 4H2 penetrates live cells, subcellular localization was investigated through immunofluorescence co-localization studies. Cal12T cells were treated with 4H2 (0.5 mg/mL) for one hour and were then washed, fixed, and immunostained with an Alexa488-conjugated anti-mouse IgG antibody. […] Cells treated with 4H2 were also co-immunostained with rabbit primary antibodies against markers of early endosomes (EEA1), lysosomes (LAMP1), Golgi (RASC1), ER (PDI), and mitochondria (COX IV), followed by detection with an Alexa555-conjugated anti-rabbit IgG antibody. Use of the Alexa488 and Alexa555-conjugated antibodies to detect 4H2 and organelle markers allowed separate visualization of 4H2 and organelle locations under GFP and RFP filters, respectively. Merging of the GFP and RFP images should yield a yellow signal in areas of co-localization. DAPI co-stain allowed visualization of nuclei in blue. Representative merged images showing DAPI, GFP, and RFP filters for each co-stain were analyzed.
To explore this, Cal12T cells treated with 4H2 were co-stained for 4H2 and K-Ras using the technique described above.

[6] = system: Single-stranded M13mp18 DNA; assay: Nucleolytic assay; assay type: biochemical; details: 0.5 mg/mL antibody, 37° C., 10 minutes
Experimental: Single-stranded M13mp18 DNA (50 ng; New England Biolabs, Ipswich, MA) was incubated at 37° C. for 10 minutes in control binding buffer (50 mM Tris-HCl, 100 mM NaCl, 10 mM MgCl2) or binding buffer containing 0.5 mg/mL 4H2, 3E10, or 5C6.
An intriguing feature of some anti-DNA antibodies is an association with catalytic activities. […] To determine if 4H2 has any effect on DNA integrity it was incubated with single-stranded M13mp18 plasmid DNA for 10 minutes and then evaluated the integrity of the DNA on an agarose gel. 3E10 and 5C6 were also included as negative and positive controls, respectively.

[7] = GTPase assay, colorimetric Pi release from GTP; assay type: biochemical; details: 4H2 0-1 mg/mL, 30 minutes, absorbance at 630 nm
Experimental: Pi release from GTP after incubation with 4H2 (0-1 mg/mL) for 30 min was measured by colorimetric assay using the Innova GTPase activity kit.
The effect of 4H2 on Pi release from GTP was tested using a colorimetric assay. 4H2 (0-1 mg/mL) was incubated with GTP for 30 minutes, and Pi release was measured using the Innova GTPase activity kit. Concentration of Pi released was determined from absorbance at 630 nm and comparison to a free Pi standard curve. 4H2 in buffer alone was used as a blank.

[8] = system: Akt phosphorylation in Cal12T cells; assay: Western blot of phospho-Akt; assay type: cell-based, human; details: 1 mg/mL
Experimental: (§2) Cell lysates were prepared and run on 4-15% SDS-PAGE gradient gels, followed by transfer to membranes. Membranes were then blocked and incubated with the indicated primary antibodies, followed by HRP-conjugated secondary antibody and detection of bands by chemiluminescence. Band intensity measurements were taken using ImageJ.
(§3) To probe the effect of 4H2 on signaling its effect on the phosphorylation of Akt was tested in cells.

[9] = system: Akt phosphorylation in SW48 human colon cancer cells; assay: Western blot of phospho-Akt; assay type: cell-based; details: 1 mg/mL, 4 hours
Experimental: FIG. 1A is a line graph showing the effect of 4H2 on release Pi from GTP as measured by colorimetric assay (N=2). FIG. 1B is a bar graph showing the relative amounts of phospho-Akt in Cal12T cells treated with 1 mg/mL 4H2 at 4 and 24 hours relative to control (*p<0.05. N=4). FIG. 1C is a bar graph showing the relative amounts of phospho-Akt in SW48 human colon cancer cells treated with 1 mg/mL 4H2 at 4 hours relative to control (*p<0.05. N=2).
as §2, §3

[10] = system: G12C K-Ras-mutant Cal12T lung cancer cells; assay: Clonogenic survival by colony formation assay; assay type: cell-based, human
Experimental: (§4) FIG. 2A is a line graph showing the effects of 4H2 on a matched pair of isogenic parental (WT) and G12C K-Ras-mutant (KRAS) Cal12T lung cancer cells. Clonogenic survival was measured by colony formation assay (*p<0.02. N=6). FIGS. 2B and 2C are line graphs showing H441 (2B) and H358 K-Ras (2C) addicted human lung cancer cells (G12V and G12C mutations, respectively) treated with control media or media containing 4H2. Surviving fractions were determined by colony formation assay (*p<0.01. N>3). FIG. 2D is a line graph showing the effect of 4H2 on tumor volume (mm^3) of H358 tumor xenografts generated in the flanks of nude mice by subcutaneous injection of tumor cells. Once tumors reached ˜100 mm3 volume mice were treated with direct tumor injection of 50 uL of control PBS or PBS containing 0.5 mg/mL 4H2 twice a week for three weeks. Tumor volumes were monitored, and growth curves are shown. […] N=3 mice per group.
(§5) Aberrations in cell signaling caused by activating mutations in small GTPases such as the Ras family of proteins are found in ˜30% of malignancies, and K-Ras is one of the most frequently mutated small GTPases (Adjei, J Natl Cancer Inst, 93:1062-1074 (2001), Gysin, et al., Genes Cancer, 2:359-372 (2011)). Development of therapies that are preferentially toxic to K-Ras mutant cancer cells is a major goal in oncology. […]

[11] = system: parental (WT) Cal12T lung cancer cells; assay: Clonogenic survival by colony formation assay; assay type: cell-based, human; details: WT K-Ras
Experimental: as §4, §5

[12] = system: H358 K-Ras addicted human lung cancer cells; assay: Surviving fraction by colony formation assay; assay type: cell-based; details: K-Ras G12C
Experimental: as §4
(§6) Lastly, to confirm that 4H2 is toxic to K-Ras addicted cancer cells in vivo, H358 subcutaneous xenografts were generated in nude mice and treated by direct injection with control buffer or 25 ug of 4H2 twice a week for three weeks.

[13] = system: H441 K-Ras addicted human lung cancer cells; assay: Surviving fraction by colony formation assay; assay type: cell-based; details: K-Ras G12V
Experimental: as §4, §6

[14] = system: H358 subcutaneous xenografts; assay: Tumor growth suppression assay; assay type: in vivo, nude mice; details: intratumoral 25 ug (50 uL of 0.5 mg/mL) twice a week for three weeks; day 15 after initiation of treatment, p<0.01
Experimental: as §4
Subcutaneous xenografts were generated in nude mice by injection of 1×10^6 H358 cancer cells. Treatment with direct intratumoral injection of 50 uL of control PBS (N=3) or 4H2 in PBS (0.5 mg/mL) (N=3) twice a week for three weeks was initiated once tumors reached ˜100 mm^3. Tumor volumes were tracked by caliper measurements. […]

[15] = system: cAMP in cultured cells; details: previous findings; cited from earlier work
[16] = preliminary findings, data not published; cited from earlier work
[17] = system: Htori-3-LLU thyroid epithelial cells; details: cited from earlier work
[18] = system: ERK and Akt; details: cited from earlier work

B1: 4H2 scFv: single chain variable fragment of 4H2, SEQ ID NO:22: VL, linker, VH, His6 tag (protein)
scFv: DIVLTQSPATLSVTPGDRVSLSCRASQSISNYLHWYQQKSHESPRLLIKYASQSISGIPSRFSGSGSGTDFTLSIISVETEDFGMYFCQQSNSWPLTFGAGTKLELKADAAPGGGGSGGGGSGGGGSEVQLQQSGPELVKPGASVKMSCKASGYTFTDYYMNWVKQSHGKSLEWIGRVNPSNGGISYNQKFKGKATLTVDKSLSTAYMQLNSLTSEDSAVYYCARGPYTMYYWGQGTSVTVSSHHHHHH
With B1 the cell penetration [1] was “cell-penetrating activity”.

B2: 4H2: monoclonal anti-guanosine antibody produced by a hybridoma from MRL/lpr; VL SEQ ID NO:1, VH SEQ ID NO:5 (antibody, listed as Mus musculus, V domains shown)
VH: EVQLQQSGPELVKPGASVKMSCKASGYTFTDYYMNWVKQSHGKSLEWIGRVNPSNGGISYNQKFKGKATLTVDKSLSTAYMQLNSLTSEDSAVYYCARGPYTMYYWGQGTSVTVSS
VL: DIVLTQSPATLSVTPGDRVSLSCRASQSISNYLHWYQQKSHESPRLLIKYASQSISGIPSRFSGSGSGTDFTLSIISVETEDFGMYFCQQSNSWPLTFGAGTKLELK
In the case of B2, the “location of antibody staining in cells” value [2] is reported as “exclusively cytoplasmic staining”, the “4H2 signal in nuclei (overlay with Hoechst)” value [3] is reported as “absence of 4H2 signal in the nuclei” and the “FITC fluorescence correlating to 4H2, location” value [3] is reported as “detected in the cytoplasm”. The “co-localization with mitochondria (MitoTracker)” value [3] was “a distinct co-localization with mitochondria could not be confirmed”, the “4H2 signal in nuclei (overlay with Hoechst)” value [4] was “absence of 4H2 signal in the nuclei” and the “FITC fluorescence correlating to 4H2, location” value [4] was “detected in the cytoplasm”. The “co-localization with mitochondria (MitoTracker)” value [4] was “a distinct co-localization with mitochondria could not be confirmed”, the “co-localization with endosomes or lysosomes” value ([5]; 0.5 mg/mL, one hour) was “did not colocalize with endosomes or lysosomes” and the “Alexa488 signal (4H2) location” value ([5]; 0.5 mg/mL, one hour, fixed cells) was “detected in the cytoplasm”. The “localization to organelles: early endosomes (EEA1), lysosomes (LAMP1), Golgi (RASC1), ER (PDI), mitochondria (COX IV)” value ([5]; 0.5 mg/mL, one hour, fixed cells, merged GFP/RFP images) was “did not appear to directly localize to any of the organelles tested”, the “co-localization with K-Ras” value ([5]; co-stain for 4H2 and K-Ras, merged fluorescence) was “at least some degree of co-localization” and the “effect on DNA integrity (agarose gel)” value [6] was “neither 3E10 nor 4H2 had any discernible effects on the DNA integrity”. The “Pi release from GTP” value [7] was “dose-dependent release of Pi from GTP”, the “amount of phospho-Akt relative to control” value ([8]; 24 hours) was “reduced the amount of phospho-Akt” and the “amount of phospho-Akt relative to control” value ([8]; four hours) was “reduced the amount of phospho-Akt”. For the same molecule, the “amount of phospho-Akt relative to control” value [9] was “reduce amounts of p-Akt”, the “clonogenic survival, sensitivity to 4H2” value [10] was “highly sensitive to 4H2” and the “clonogenic survival, sensitivity to 4H2” value [11] was “more resistant to its effects”. For the same molecule, the “surviving fraction, sensitivity to 4H2” value [12] was “sensitive to 4H2”, the “surviving fraction, sensitivity to 4H2” value [13] was “sensitive to 4H2” and the “tumor growth / tumor volume” value [14] was “statistically significant difference in tumor volumes; also recorded: Detectable suppression of tumor growth”. For the same molecule, the cAMP in cells [15] was “reduces cAMP in cells”, the “cleavage of GTP” value [16] was “catalyzed cleavage of the gamma-phosphate bond in radiolabeled GTP” and the association with mitochondria [17] was “appeared to associate with mitochondria”. The “phosphorylation of ERK and Akt” value [18] was “reduce phosphorylation of ERK and Akt”.

From patent US12486318B2, “Anti-guanosine antibody as a molecular delivery vehicle” (Yale University, priority 2016, dated 2025)
